This test has as its target middle domain of human Paip1 (Paip1M) (human) (UniProt Q9H074). Put plainly: BLI; […]; 1x PBS pH 7.4, 0.1% surfactant P20, 0.1% BSA, 500 mM NaCl; 25 C; global fit, 1:1 model.

middle domain of human Paip1 (Paip1M) (human), sequence (Q9H074 157-375): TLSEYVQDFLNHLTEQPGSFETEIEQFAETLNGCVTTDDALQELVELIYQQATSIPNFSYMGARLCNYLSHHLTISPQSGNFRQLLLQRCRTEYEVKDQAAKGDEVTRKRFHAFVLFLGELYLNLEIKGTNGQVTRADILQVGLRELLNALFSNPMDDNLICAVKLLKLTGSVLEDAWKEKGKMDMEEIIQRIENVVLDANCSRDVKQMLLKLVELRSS

One may read the Kd as the constant that tells how readily two partners part at equilibrium. With “SARS-CoV-2 SUD-core-CC (domain or fragment)”, the Kd came to 7.2 µM.

The values above are taken from publication PMC10326071.
